Source: the MegaScale stability set (Tsuboyama et al. 2023)

B1: EEHEE_rd4_0647 (parent)
chain: MQVTWGNVTVTFSNPEEAKKYAEKVARKLGGQVELHNGQFRIK

Variants of: B1
Test: folding stability dG (cDNA display proteolysis); higher = more stable
Conditions: PBS, room temperature

Folding stability dG [kcal/mol] of substitutions, site by site:
K19: G 1.83; S 2.12; F 2.94; W 2.88; N 1.71; L 3.02; P 0.106; A 2.53; M 2.66; Y 2.94; T 1.62; I 2.42; E 2.21; D 0.816; Q 2.61; H 2.34; V 2.08
G30: K 2.4; I 1.34; V 1.45; H 2.53; S 1.98; A 1.88; Q 2.12; L 1.85; F 1.9; W 1.74; T 1.34; C 3.02; Y 1.81; M 2.05; E 1.59; N 2.63; R 2.41; D 1.91; P 1.04
K20: M 2.75; F 2.41; G 2.13; L 2.86; W 2.67; H 2.57; S 2.64; I 2.77; D 2.54; P 0.849; E 2.73; V 2.71; N 2.58; R 2.96; Y 2.43; A 2.98; Q 2.72; T 2.62
E34: N 1.6; S 2.23; T 2.44; G 1.41; H 2.17; W 2.2; P 0.384; F 2.6; R 1.78; Y 2.78; A 1.94; Q 2.25; V 2.81; M 2.22; K 1.73; D 2.11; I 2.83; L 2.21
R27: T 2.31; A 2.78; V 2.36; I 2.52; W 2.3; M 2.59; S 2.4; F 2.45; G 2.13; L 2.75; H 2.51; P 0.58; E 2.61; Y 2.41; D 2.18; K 2.88; Q 2.64; N 2.37; C 3.21
A18: Y 0.88; Q 0.42; N 0.024; R 0.219; V 0.732; S 0.985; T 0.656; W 1.08; P -0.247
K28: N 2.29; T 2.54; L 3.15; E 2.72; I 3.18; H 2.9; S 2.51; Q 2.79; F 2.97; D 2.47; A 3.04; R 2.98; W 3.23; G 2.01; V 2.87; C 3.7; Y 2.97; M 3.09; P 0.676
A26: G 1.38; R 1.38; V 1.66; M 1.2; T 0.93; L 1.34; Q 1.06; N 0.851; Y 0.807; D 0.03; K 0.937; C 2.08; F 1; P -0.236; E 0.315; I 1.35; W 1.17; H 0.769; S 1.71
L35: N 1.96; C 2.78; K 2.11; G 1.48; Y 3.14; M 2.82; I 2.83; P 1.3; V 2.83; H 2.1; S 2.04; Q 2.28; D 1.84; W 2.63; T 2.24; E 2.5; R 2.13; A 2.09; F 3.15
H36: D 2.53; E 2.78; C 3.37; A 2.51; I 3.34; F 2.79; G 1.8
G31: Q 1.87; V 2.27; S 2.19; Y 2.04; P 0.55; C 2.79; D 1.05; T 2.03; F 2.21; M 2.53; K 1.8; I 2.01; A 2.62; N 1.06; H 2.11; L 2.6; E 1.46; W 2.39; R 1.8
Q32: C 3.47; P 1.33; S 3; M 2.78; N 2.4; L 2.74; F 3.08; D 2.11; T 3.35; G 1.77; A 2.52; W 3.18; I 3.27; V 3.29; Y 3.33; H 2.89; K 2.92; R 2.89; E 2.76
Y21: C 2.87; N 0.633; E 0.876; Q 0.996; F 3.05; W 2.52; A 1.3; V 1.47; M 1.71; S 0.62; K 0.616; H 1.36; G 0.194; I 1.34; L 1.74; R 0.486; T 0.931; D -0.099; P -0.824
V25: Y 1.48; K 1.68; E 0.927; T 1.93; S 0.981; M 2.95; G 0.217; F 1.79; N 0.417; D 0.13; H 1.01; I 3.11; L 2.95; A 1.61; W 2.69; P -0.34; Q 1.87; R 1.33
V33: I 2.62; T 1.22; R 0.477; G 0.276; M 1.86; Y 2.07; L 2.16; H 0.75; K 0.686; A 1.82; F 1.85; Q 0.541; W 2.13; P 1.22; S 1.11; C 1.95; N 0.506; E 0.359; D 0.259
A22: F 1.07; H 0.174; M 1.48; V 1.43; S 1.24; D -0.372; T 0.682; P -0.509; L 1.62; G 0.944; N 0.101; K 0.426; C 1.62; R 0.493; W 1.04; Y 0.931; Q 0.207; I 1.43; E -0.084
K24: T 2.61; A 3.01; W 3.27; C 3.81; G 2.37; N 2.5; R 2.88; V 2.59; S 2.73; F 3.2; L 2.93; M 3.16; Y 3.25; E 2.83; I 2.75; D 2.73; H 2.89; P -0.146; Q 2.8
E23: C 3.37; M 2.68; R 2.23; Q 2.62; T 2.37; A 2.43; Y 3.15; S 2.15; I 2.71; V 2.42; H 2.69; F 2.98; P 0.119; K 2.29; W 2.73; L 2.7; G 1.86; N 2.44; D 2.62
L29: S 2.02; P 0.143; A 1.76; F 2.66; K 1.36; Y 2.63; C 2.92; N 1.6; G 1.17; W 2.5; T 2.65; I 2.96; E 1.33; Q 1.58; H 2.06; V 2.77; M 2.51; D 0.761; R 1.62
